Experimental data from patent US20240270851A1 (US Dept. of Health and Human Services, published 2024).

What was measured:
[1] = target: T1, human B7-H3 (human, UniProt Q5ZPR3 29-461, limits assumed); assay: ELISA on coated human B7-H3
T1 sequence (looked up): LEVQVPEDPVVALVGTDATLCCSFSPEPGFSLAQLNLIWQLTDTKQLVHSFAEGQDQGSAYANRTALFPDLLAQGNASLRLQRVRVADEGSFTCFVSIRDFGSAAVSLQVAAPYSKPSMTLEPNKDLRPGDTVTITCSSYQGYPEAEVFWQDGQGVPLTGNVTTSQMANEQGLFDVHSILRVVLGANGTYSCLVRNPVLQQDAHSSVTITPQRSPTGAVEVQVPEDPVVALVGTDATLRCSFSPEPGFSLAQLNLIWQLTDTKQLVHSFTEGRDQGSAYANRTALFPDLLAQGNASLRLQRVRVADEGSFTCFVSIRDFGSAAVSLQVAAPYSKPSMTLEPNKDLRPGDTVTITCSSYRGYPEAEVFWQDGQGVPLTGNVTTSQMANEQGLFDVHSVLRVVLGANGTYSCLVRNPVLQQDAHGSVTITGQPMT

[2] = target: T2, mouse PD-L1 on murine melanoma cell line B8979HC (mouse, UniProt Q9EP73 19-290); assay: flow cytometry on murine melanoma cells B8979HC (column 'Mouse')
T2 construct: whole, on cells; also called native PD-L1; mouse antigen

[3] = target: T3, mouse PD-L1-hFc (mouse, UniProt Q9EP73 19-237, limits assumed); assay: monoclonal phage ELISA on coated antigen, detected with anti-M13-HRP
T3 construct: also called mPD-L1 hFc-tag format; not shown: human Fc tag (hFc)
Method: (§1) The phage ELISA was performed as previously described (Feng et al., Antib Ther 2019; 2(1):1-11). Briefly, a Nunc 96-well Maxisorp plate was coated with 5 μg/ml antigenic proteins, including mouse PD-L1-His, mouse PD-L1-hFc, human PD-L1-His, human PD-L1-hFc, and the irrelevant antigen human IgG and PBS in 50 μl PBS per well overnight at 4° C. The plate was blocked with 2% BSA in PBS for 1 hour at room temperature. Pre-blocked phage supernatant was then added into the plate. The binding activity was determined with a horseradish peroxidase (HRP)-conjugated mouse anti-M13 antibody (GE Healthcare).

[4] = target: T4, mouse PD-L1-His (mouse, UniProt Q9EP73 19-237); assay: as above
T4 construct: Bought recombinant protein; also called mPD-L1; recombinant mouse PD-L1-His; not shown: His tag
Method: as §1

[5] = target: T5, peptide #19 of the hPD-L1 ECD peptide array (human); assay: peptide-scanning ELISA on 24 coated hPD-L1 ECD peptides, detected with anti-flag-HRP
T5 construct: 18-mer synthetic peptide from human PD-L1
T5 peptide: TTNSKREEKLFNVTSTLR
Method: To predict the binding epitope of anti-PD-L1 nanobodies, a total of 24 peptides were designed based on the hPD-L1 ECD amino acid sequence. Each synthesized peptide is 18 amino acids in length with 9 amino acids of overlap, which allows the minimum antigenic region of hPD-L1 ECD recognized by each VNAR to be narrowed down by step-by-step peptide mapping onto a 9-mer peptide epitope. The ELISA was performed as previously described. In brief, the 24 peptides were coated into individual wells of a 96-well Maxisorp plate. […] The binding activity was determined by ODA450.

[6] = target: T6, human PD-L1-His (human, UniProt Q9NZQ7 19-238); assay: BLI (Octet), VNAR-hFc with hPD-L1-His, Ni-NTA sensor; at 100 nM; at a concentration of 100 nM (printed '100 nm')
T6 construct: also called hPD-L1-His; hPD-L1 His-tag format; not shown: His tag

[7] = target: T6, human PD-L1-His; assay: BLI (Octet), VNAR-hFc with hPD-L1-His, Ni-NTA sensor; at 50 nM; at a concentration of 50 nM
[8] = target: T4, mouse PD-L1-His; assay: monoclonal phage ELISA
[9] = target: T7, human PD-L1 on MDA-MB-231 cells (human, UniProt Q9NZQ7 19-290); assay: flow cytometry on MDA-MB-231 cells (column 'Human')
T7 construct: whole, on cells; also called native PD-L1; human antigen

[10] = target: T8, human PD-L1-hFc (human, UniProt Q9NZQ7 19-238); assay: monoclonal phage ELISA on coated antigen, detected with anti-M13-HRP
T8 construct: also called hPD-L1 hFc-tag format; not shown: human Fc tag (hFc)
Method: as §1

[11] = target: T6, human PD-L1-His; assay: as above
Method: as §1

[12] = target: T9, human PD-L1 (hPD-L1) protein (human, UniProt Q9NZQ7 19-238); assay: BLI (Octet), PD-L1 protein loaded on a Ni-NTA biosensor, VNAR binding step
T9 construct: also called hPD-L1 ECD
T9 sequence (Q9NZQ7 19-238 limits assumed): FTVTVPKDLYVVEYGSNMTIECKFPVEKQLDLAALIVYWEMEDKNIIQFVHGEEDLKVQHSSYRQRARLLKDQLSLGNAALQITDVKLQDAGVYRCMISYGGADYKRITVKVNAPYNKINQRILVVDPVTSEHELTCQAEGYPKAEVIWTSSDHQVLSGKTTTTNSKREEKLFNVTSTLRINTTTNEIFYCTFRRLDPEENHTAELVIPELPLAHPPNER

T6 sequence (Q9NZQ7 19-238 limits assumed): as above
T3 sequence (Q9EP73 19-237 limits assumed): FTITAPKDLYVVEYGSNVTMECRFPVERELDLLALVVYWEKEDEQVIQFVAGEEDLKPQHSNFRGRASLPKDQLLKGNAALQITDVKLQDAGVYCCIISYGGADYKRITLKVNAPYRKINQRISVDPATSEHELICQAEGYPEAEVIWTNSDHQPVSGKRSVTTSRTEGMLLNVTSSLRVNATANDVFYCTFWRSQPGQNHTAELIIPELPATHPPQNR
T4 sequence (Q9EP73 19-237 limits assumed): as above
T2 sequence (Q9EP73 19-290): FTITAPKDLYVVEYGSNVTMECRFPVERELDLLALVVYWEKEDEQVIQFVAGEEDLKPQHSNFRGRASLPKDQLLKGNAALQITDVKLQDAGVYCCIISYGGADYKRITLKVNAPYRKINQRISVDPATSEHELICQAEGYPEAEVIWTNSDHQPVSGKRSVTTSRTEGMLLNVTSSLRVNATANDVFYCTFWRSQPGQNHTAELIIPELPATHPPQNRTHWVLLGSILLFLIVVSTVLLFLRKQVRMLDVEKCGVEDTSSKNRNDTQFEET
T8 sequence (Q9NZQ7 19-238 limits assumed): as the sequence (Q9NZQ7 19-238 limits assumed) above
T7 sequence (Q9NZQ7 19-290): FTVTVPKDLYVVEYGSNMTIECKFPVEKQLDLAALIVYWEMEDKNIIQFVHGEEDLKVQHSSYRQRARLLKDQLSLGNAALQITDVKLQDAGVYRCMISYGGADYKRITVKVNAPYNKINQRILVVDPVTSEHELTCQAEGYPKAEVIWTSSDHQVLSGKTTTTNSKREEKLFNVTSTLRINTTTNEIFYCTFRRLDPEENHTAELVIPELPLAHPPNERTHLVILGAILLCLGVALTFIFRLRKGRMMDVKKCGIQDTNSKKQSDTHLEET

B1: Shark VNAR B2 (VNAR)
VNAR: ARVDQTPRSVTKETGESLTINCVLRDSSYALGSTYWYRKKSGSTNEESISKGGRYVETVNSGSKSFSLRINDLTVEDSGTYRCKYTSRLRREGPLSWDGNTVYGGGTVVTVN
notes: Shark VNAR single-domain antibody from the semi-synthetic 18AA CDR3 library; also called B2 nanobody; B2 clone
binding result [1]: no binding | binding result [2]: binds | binding result [3]: binds | binding result [4]: binds

B2: B2-His-flag (VNAR)
VNAR: ARVDQTPRSVTKETGESLTINCVLRDSSYALGSTYWYRKKSGSTNEESISKGGRYVETVNSGSKSFSLRINDLTVEDSGTYRCKYTSRLRREGPLSWDGNTVYGGGTVVTVN
notes: Soluble VNAR B2 with His and flag tags, used at 5 ug/ml in the peptide-scanning ELISA; also called nanobody B2 (peptide scanning); not shown: His tag and flag tag
binding result [5]: binds

B3: B2-hFc (Fc fusion)
chain: ARVDQTPRSVTKETGESLTINCVLRDSSYALGSTYWYRKKSGSTNEESISKGGRYVETVNSGSKSFSLRINDLTVEDSGTYRCKYTSRLRREGPLSWDGNTVYGGGTVVTVN
notes: also called B2 VNAR-hFc fusion protein; not shown: human Fc (hFc)
Kd [6]: 1.7 nM | Kd [7]: 1.4 nM

B4: Shark VNAR A11 (VNAR)
VNAR: ARVDQTPRSVTKETGESLTINCVLRDTSYALGSTYWYRKKSGSTNEESISKGGRYVETVNSGSKSFSLRINDLTVEDSGTYRCKFKSNTEFLNPLTVSMSTIYGGGTVVTVN
notes: Shark VNAR single-domain antibody
binding result [3]: binds | binding result [4]: binds

B5: A11-His-flag (VNAR)
VNAR: ARVDQTPRSVTKETGESLTINCVLRDTSYALGSTYWYRKKSGSTNEESISKGGRYVETVNSGSKSFSLRINDLTVEDSGTYRCKFKSNTEFLNPLTVSMSTIYGGGTVVTVN
notes: Soluble VNAR A11 with His and flag tags, used at 5 ug/ml in the peptide-scanning ELISA; also called nanobody A11 (peptide scanning); not shown: His tag and flag tag
binding result [5]: no binding (tested: 5 µg/ml)

B6: Shark VNAR A7 (VNAR)
VNAR: ARVDQTPRSVTKETGESLTINCVLRDTSYALGSTYWYRKKLGSTNEESISKGGRYVETVNSGSKSFSLRINDLTVEDSGTYRCKMNQRYPCDNNSWWSLYCGTTVYGGGTVVTVN
binding result [8]: binds

B7: Shark VNAR A9 (VNAR)
VNAR: ARVDQTPQTITKETGESLTINCVLRDTNYALGSTYWYRKKLGSTNEESISKGGRYVETVNSGSKSFSLRINDLTVEDSGTYRCKNTSPWLTYSPWTVSGQTSYGGGTVVTVN
binding result [8]: binds

B8: Shark VNAR A2 (VNAR)
VNAR: ARVDQTPRSVTKETGESLTINCVLRDTSYALGSTYWYRKKLGSTNEESISKGGRYVETVNSGSKTFSLRINDLTVEDSGTYRCKVQTTWSYLSPYKIEFATVYGGGTVVTVN
binding result [8]: binds

B9: Shark VNAR A10 (VNAR)
VNAR: ARVDQTPRSVTKETGESLTINCVLRDTNYALGSTYWYRKKLGSTNEESISKGGRYVETVNSGSKSFSLRINDLTVEDSGTYRCKSTTPWNNLTSFTSERVTIYGGGTVVTVN
binding result [8]: binds

B10: Shark VNAR A3 (VNAR)
VNAR: ARVDQTPQTITKETGESLTINCVLRDSNYALGSTYWYRKKSGSTNEESISKGGRYVETVNSGSKSFSLRINDLTVEDSGTYRCKTQKAIPCNMNGYVCGVTIYGGGTVVTVN
binding result [8]: binds

B11: Shark VNAR A1 (VNAR)
VNAR: ARVDQTPRSVTKETGESLTINCVLRDTNYALGSTYWYRKKSGSTNEESISKGGRYVETVNSGSKSFSLRINDLTVEDSGTYRCKTSSKPLLVSHNVWSAWTEYGGGTVVTVN
binding result [8]: binds

B12: Shark VNAR C4 (VNAR)
VNAR: ARVDQTPRSVTKETGESLTINCVLRDTNYALGSTYWYRKKSGSTNEESISKGGRYVETVNSGSKSFSLRINDLTVEDSGTYRCKQSASLWIPNLLRWVPVISYGGGTVVTVN
binding result [8]: binds

B13: Shark VNAR D12 (VNAR)
VNAR: ARVDQTPRSVTKETGESLTINCVLRDTNYALGSTYWYRKKSGSTNEESISKGGRYVETVNSGSKSFSLRINDLTVEDSGTYRCKHQSSWRRQAPRVMEMQTLYGGGTVVTVN
binding result [8]: binds

B14: Shark VNAR A6 (VNAR)
VNAR: ARVDQTPQTITKETGESLTINCVLRDTSYALGSTYWYRKKSGSTNEESISKGGRYVETVNSGSKSFSLRINDLRVEDSGTYRCKYSSSWQKATEGVWEAMTEYGGGTVVTVN
binding result [8]: binds

B15: Shark VNAR F5 (VNAR)
VNAR: ARVDQTPRSVTKETGESLTINCVLRDTNYALGSTYWYRKKLGSTNEESISKGGRYVETVNSGSKSFSLRINDLTVEDSGTYRCKNLGHPMYIAGAICRPLPIYGGGTVVTVN
notes: as for B4
binding result [9]: binds | binding result [2]: binds | binding result [10]: binds | binding result [3]: binds | binding result [4]: binds | binding result [11]: binds

B16: F5-hFc (Fc fusion)
chain: ARVDQTPRSVTKETGESLTINCVLRDTNYALGSTYWYRKKLGSTNEESISKGGRYVETVNSGSKSFSLRINDLTVEDSGTYRCKNLGHPMYIAGAICRPLPIYGGGTVVTVN
notes: VNAR-hFc fusion used on the Octet; also called F5 VNAR-hFc fusion protein; not shown: human Fc (hFc)
binding result [12]: binds

B17: F5-His-flag (VNAR)
VNAR: ARVDQTPRSVTKETGESLTINCVLRDTNYALGSTYWYRKKLGSTNEESISKGGRYVETVNSGSKSFSLRINDLTVEDSGTYRCKNLGHPMYIAGAICRPLPIYGGGTVVTVN
notes: Soluble VNAR F5 with His and flag tags, used at 5 ug/ml in the peptide-scanning ELISA; also called nanobody F5 (peptide scanning); not shown: His tag and flag tag
binding result [5]: binds
